Source: PMC314469, “Protein Interaction Networks by Proteome Peptide Scanning” (PLoS Biology, 2004)

T1: Myo5 SH3 (MYO5_YEAST), Q04439
T1 chain: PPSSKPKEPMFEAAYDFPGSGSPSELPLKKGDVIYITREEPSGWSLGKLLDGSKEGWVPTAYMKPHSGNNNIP

T2: Yfr024 SH3 (LSB3_YEAST), P43603
T2 chain: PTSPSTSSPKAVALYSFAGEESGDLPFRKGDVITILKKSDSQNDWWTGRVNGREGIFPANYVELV

T3: Boi2 SH3 (BOI2_YEAST), P39969
T3 chain: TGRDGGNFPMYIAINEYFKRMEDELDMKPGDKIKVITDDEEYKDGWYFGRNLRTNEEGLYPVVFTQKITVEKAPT

T4: Yhr016c SH3 (YSC84_YEAST), P32793
T4 chain: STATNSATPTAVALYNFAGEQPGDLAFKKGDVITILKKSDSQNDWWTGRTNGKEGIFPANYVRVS

T5: Rvs167 SH3 (RV167_YEAST), P39743
T5 chain: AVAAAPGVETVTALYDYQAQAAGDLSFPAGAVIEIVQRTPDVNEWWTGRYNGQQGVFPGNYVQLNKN

T6: Boi1 SH3 (BOI1_YEAST), P38041
T6 chain: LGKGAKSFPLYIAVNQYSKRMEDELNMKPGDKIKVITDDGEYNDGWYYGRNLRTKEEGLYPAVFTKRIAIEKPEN


Tests used:
Assay in all cases: SPOT array
[1] = molecular target: T1, Myo5 SH3 (MYO5_YEAST), Q04439
[2] = molecular target: T2, Yfr024 SH3 (LSB3_YEAST), P43603
[3] = molecular target: T3, Boi2 SH3 (BOI2_YEAST), P39969
[4] = molecular target: Sho1 SH3 (SHO1_YEAST), P40073
[5] = molecular target: T4, Yhr016c SH3 (YSC84_YEAST), P32793
[6] = molecular target: T5, Rvs167 SH3 (RV167_YEAST), P39743
[7] = molecular target: T6, Boi1 SH3 (BOI1_YEAST), P38041

Sho1 SH3 (SHO1_YEAST), P40073, sequence (P40073 295-366): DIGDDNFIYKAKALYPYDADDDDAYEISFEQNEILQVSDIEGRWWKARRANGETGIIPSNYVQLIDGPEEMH

Binder	normalised SPOT signal, Boehringer light units (BLU); mean over the file's lines of this peptide [1]	normalised SPOT signal, Boehringer light units (BLU); mean over the file's lines of this peptide [2]	normalised SPOT signal, Boehringer light units (BLU); mean over the file's lines of this peptide [3]	normalised SPOT signal, Boehringer light units (BLU); mean over the file's lines of this peptide [4]	normalised SPOT signal, Boehringer light units (BLU); mean over the file's lines of this peptide [5]	normalised SPOT signal, Boehringer light units (BLU); mean over the file's lines of this peptide [6]	normalised SPOT signal, Boehringer light units (BLU); mean over the file's lines of this peptide [7]
PVRSRVLPATPRQI [YKL086W 103-116]	1470	15900	35.9	28200	1380	10400	2030
PSSKKNKPNPPPGS [YJL056C 176-189]	107	49.2	0.8	72.1	28	40.5	571
PTANKYAPVSPTVQ [YPL085W 797-810]	191	0	27.4	37.8	11.2	93.3	168
PSSHKRKPVIPWDA [YNL295W 201-214]	289	65.5	40.8	79.1	8.5	52	93.5
PVPVRMQPQPPQPM [YBR108W 383-396]	188	1650	85.6	71.7	145	70.5	93.8
PSRSKSNPILPIMR [YLR319C 684-697]	523	1260	25.1	98.4	70.1	246	196
PTVQKFSPHPPTTL [YER144C 362-375]	213	10.2	14.5	44.4	16	20.8	58
